Values quoted from earlier work, collected in patent US12514872B2, “Polycationic polymers for use in treating and detecting cancer” (Duke University, priority 2015, dated 2026).

B1: DNAse I: enzyme used in a cited PC study to treat tumor cells associated with extracellular DNA (protein, UniProt P24855 23-282, looked up)
Deoxyribonuclease-1: LKIAAFNIQTFGETKMSNATLVSYIVQILSRYDIALVQEVRDSHLTAVGKLLDNLNQDAPDTYHYVVSEPLGRNSYKERYLFVYRPDQVSAVDSYYYDDGCEPCGNDTFNREPAIVRFFSRFTEVREFAIVPLHAAPGDAVAEIDALYDVYLDVQEKWGLEDVMLMGDFNAGCSYVRPSQWSSIRLWTSPTFQWLIPDSADTTATPTHCAYDRIVVAGMLLRGAVVPDSALPFNFQAAYGLSDQLAQAISDHYPVEVMLK

Columns and labels:
[1] = test system: RNA oligonucleotide coagulation-factor inhibitors (aptamers); settings: previous work, WO2008/121354
[2] = test system: orthotopic xenograft pancreatic tumors
[3] = test system: PC tumor cell lines; settings: in vitro

| Molecule | reversal of anticoagulant activity of aptamers [1] | tumor metastasis [2] | cell invasion, migration and adhesion [3] |
| --- | --- | --- | --- |
| protamine sulfate | reverse the anticoagulant activity | – | – |
| B1 | – | reduction in tumor metastasis | reduced cell invasion, migration, and adhesion |
